Source: the supplement of paper PMC9112550, “Optimization of the antimicrobial peptide Bac7 by deep mutational scanning” (BMC Biology, 2022)

System: Escherichia coli TOP10
Test: shrunken log2 fold change of peptide-encoding DNA abundance (4.5 h post-induction vs induction); higher = less antimicrobial activity (less host growth inhibition)
Conditions: time post-induction: 4.5 h; library: site-saturation at positions 5, 18, 19, 20
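Further: peptides expressed intracellularly from a pBAD plasmid library in pooled LB shake-flask culture, induced with 0.3% L-arabinose, DNA abundance read by NGS, three biological replicates, DESeq2 with apeglm shrinkage.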

| Sequence | shrunken log2 fold change |
| --- | --- |
| RRIRPRPPRLPRPRPRPHNLPRP | -0.131 |
| RRIRSRPPRLPRPRPRPCTHPRP | -0.00194 |
| RRIRLRPPRLPRPRPRPISNPRP | -0.17 |
| RRIRCRPPRLPRPRPRPPWQPRP | 0.389 |
| RRIRGRPPRLPRPRPRPYFDPRP | -0.00956 |
| RRIRYRPPRLPRPRPRPYHNPRP | -0.525 |
| RRIRPRPPRLPRPRPRPGMLPRP | -0.0338 |
| RRIRYRPPRLPRPRPRPYKFPRP | -0.0196 |
| RRIRLRPPRLPRPRPRPYSDPRP | -0.0348 |
| RRIRARPPRLPRPRPRPGAMPRP | 0.959 |
| RRIRNRPPRLPRPRPRPTRAPRP | 0.683 |
| RRIRHRPPRLPRPRPRPTDGPRP | -0.0791 |
| RRIRDRPPRLPRPRPRPMLKPRP | 0.111 |
| RRIRVRPPRLPRPRPRPLCDPRP | -0.108 |
| RRIRTRPPRLPRPRPRPHGGPRP | 0.384 |
| RRIRFRPPRLPRPRPRPLAIPRP | -0.0726 |
| RRIRARPPRLPRPRPRPITFPRP | 0.051 |
| RRIRYRPPRLPRPRPRPDHFPRP | 0.00911 |
| RRIRFRPPRLPRPRPRPPWRPRP | 1.68 |
| RRIRKRPPRLPRPRPRPSHAPRP | 0.155 |
| RRIRTRPPRLPRPRPRPEVNPRP | 0.131 |
| RRIRQRPPRLPRPRPRPWDSPRP | -0.198 |
| RRIRGRPPRLPRPRPRPKDWPRP | 0.914 |

| Sequence | shrunken log2 fold change |
| --- | --- |
| RRIRSRPPRLPRPRPRPQHVPRP | -0.17 |
| RRIRTRPPRLPRPRPRPIAPPRP | -0.0608 |
| RRIRYRPPRLPRPRPRPHWTPRP | -0.0421 |
| RRIRDRPPRLPRPRPRPYAKPRP | 0.019 |
| RRIRVRPPRLPRPRPRPFRNPRP | -0.0529 |
| RRIRMRPPRLPRPRPRPMIQPRP | 0.00725 |
| RRIRCRPPRLPRPRPRPHGSPRP | -0.0281 |
| RRIRRRPPRLPRPRPRPRMIPRP | -0.136 |
| RRIRVRPPRLPRPRPRPNNAPRP | -0.0777 |
| RRIRFRPPRLPRPRPRPMPHPRP | -0.0704 |
| RRIRRRPPRLPRPRPRPFCYPRP | -0.00369 |
| RRIRDRPPRLPRPRPRPKCRPRP | -0.00674 |
| RRIRCRPPRLPRPRPRPLMDPRP | -0.256 |
| RRIRLRPPRLPRPRPRPRFNPRP | -0.223 |
| RRIRNRPPRLPRPRPRPDCQPRP | 0.0461 |
| RRIRRRPPRLPRPRPRPIARPRP | 0.0248 |
| RRIRPRPPRLPRPRPRPETFPRP | 0.176 |
| RRIRCRPPRLPRPRPRPMKNPRP | -0.128 |
| RRIRLRPPRLPRPRPRPAFFPRP | 0.406 |
| RRIRTRPPRLPRPRPRPSKLPRP | -0.473 |
| RRIRIRPPRLPRPRPRPDPMPRP | -0.205 |
| RRIRRRPPRLPRPRPRPNGPPRP | 0.384 |
| RRIRMRPPRLPRPRPRPRNFPRP | 1.12 |

| Sequence | shrunken log2 fold change |
| --- | --- |
| RRIRGRPPRLPRPRPRPMCWPRP | 0.859 |
| RRIRRRPPRLPRPRPRPMDIPRP | -0.168 |
| RRIRMRPPRLPRPRPRPKFWPRP | 1.87 |
| RRIRGRPPRLPRPRPRPQDDPRP | 0.114 |
| RRIRWRPPRLPRPRPRPCMIPRP | -0.471 |
| RRIRRRPPRLPRPRPRPMVCPRP | 0.0487 |
| RRIRMRPPRLPRPRPRPVMHPRP | 0.154 |
| RRIRYRPPRLPRPRPRPELEPRP | 0.0858 |
| RRIRNRPPRLPRPRPRPPPHPRP | 0.794 |
| RRIRNRPPRLPRPRPRPDQTPRP | -0.0645 |
| RRIRRRPPRLPRPRPRPWLCPRP | 0.102 |
| RRIRQRPPRLPRPRPRPGYGPRP | -0.131 |
| RRIRERPPRLPRPRPRPMKHPRP | -0.794 |
| RRIRHRPPRLPRPRPRPIVFPRP | -0.103 |
| RRIRIRPPRLPRPRPRPWVDPRP | 0.0772 |
| RRIRHRPPRLPRPRPRPKRNPRP | 0.0354 |
| RRIRDRPPRLPRPRPRPLVQPRP | 0.709 |
| RRIRARPPRLPRPRPRPVPCPRP | 0.341 |
| RRIRNRPPRLPRPRPRPKQYPRP | -0.426 |
| RRIRYRPPRLPRPRPRPATHPRP | -0.318 |
| RRIRLRPPRLPRPRPRPDPDPRP | -0.0677 |
| RRIRHRPPRLPRPRPRPRAQPRP | 0.0972 |
| RRIRWRPPRLPRPRPRPLFNPRP | -0.711 |

| Sequence | shrunken log2 fold change |
| --- | --- |
| RRIRQRPPRLPRPRPRPEKAPRP | -0.00536 |
| RRIRPRPPRLPRPRPRPNMAPRP | 0.478 |
| RRIRCRPPRLPRPRPRPCHLPRP | -0.206 |
| RRIRDRPPRLPRPRPRPKRMPRP | 0.0969 |
| RRIRSRPPRLPRPRPRPAINPRP | -0.131 |
| RRIRTRPPRLPRPRPRPWCKPRP | -0.202 |
| RRIRFRPPRLPRPRPRPYQNPRP | -0.0547 |
| RRIRGRPPRLPRPRPRPERTPRP | 1.21 |
| RRIRTRPPRLPRPRPRPHMGPRP | -0.00538 |
| RRIRFRPPRLPRPRPRPKWQPRP | 0.000886 |
| RRIRQRPPRLPRPRPRPYMSPRP | -0.655 |
| RRIRVRPPRLPRPRPRPIFGPRP | -0.015 |
| RRIRCRPPRLPRPRPRPMRKPRP | 0.249 |
| RRIRRRPPRLPRPRPRPRIKPRP | 0.142 |
| RRIRGRPPRLPRPRPRPHEAPRP | -0.000398 |
| RRIRKRPPRLPRPRPRPQNGPRP | -0.178 |
| RRIRRRPPRLPRPRPRPTEDPRP | 0.477 |
| RRIRYRPPRLPRPRPRPCHCPRP | -0.0269 |
| RRIRSRPPRLPRPRPRPYEYPRP | -0.55 |
| RRIRWRPPRLPRPRPRPQGQPRP | 0.203 |
| RRIRQRPPRLPRPRPRPKHCPRP | 0.0753 |
| RRIRPRPPRLPRPRPRPLWEPRP | 0.0604 |
